# From publication PMC3548785
# Target: His-ASF/SF2 (UniProt Q07955)
# Test: intrinsic tryptophan fluorescence quenching
# Details: 100 mM KCl, 20 mM Tris-HCl pH 7.5, room temperature, 100 nM His-ASF/SF2, excitation 280 nm, emission 340 nm
# Sequence of His-ASF/SF2 (Q07955 whole entry): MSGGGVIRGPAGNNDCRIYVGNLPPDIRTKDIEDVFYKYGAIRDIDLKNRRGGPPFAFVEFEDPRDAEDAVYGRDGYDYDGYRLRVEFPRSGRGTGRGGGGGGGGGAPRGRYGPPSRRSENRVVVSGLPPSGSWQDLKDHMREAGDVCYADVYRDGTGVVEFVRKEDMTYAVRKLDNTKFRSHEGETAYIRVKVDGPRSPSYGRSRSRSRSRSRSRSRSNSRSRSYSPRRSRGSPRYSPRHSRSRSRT
substance,measurement,value
Genomic HDV RNA,Kd,40 nM
